According to the RNAGym collection of RNA variant scans (doi:10.1021/acssynbio.7b00057):

B1: Pistol ribozyme (parent)
chain: GGGUCGUUGUUCCAUAAUCGCGUGGAUAUGGCACGCAAGUUUCUACCGGGCACCGUAAAUGUCCGACUGGAGCCGUUCGGGCGGCUAUAAACAGACCUCAGGCCCGAAGCGUGGCGGCACCUGCCGCCGGUGGUAAAAAAGAUCGGAAGAGCACACGUCU

Variants of: B1
Assay: aptazyme ON/OFF ratio, guanine; higher = stronger switching; co-transcriptional cleavage with and without guanine

Row | Variant | aptazyme ON/OFF ratio
1 | GGGUCGGUACUGUAUAAUCGCGUGGAUAUGGCACGCAAGUUUCUACCGGGCACCGUAAAUGUCCGACUGGAGCCGUUCGGGCGGCUAUAAACAGACCUCAGGCCCGAAGCGUGGCGGCACCUGCCGCCGGUGGUAAAAAAGAUCGGAAGAGCACACGUCU [U7G G9A U10C C12G C13U] | 1.27
2 | GGGUCGGUACUGAAUAAUCGCGUGGAUAUGGCACGCAAGUUUCUACCGGGCACCGUAAAUGUCCGACUGGAGCCGUUCGGGCGGCUAUAAACAGACCUCAGGCCCGAAGCGUGGCGGCACCUGCCGCCGGUGGUAAAAAAGAUCGGAAGAGCACACGUCU [U7G G9A U10C C12G C13A] | 1.09
3 | GGGUCGGUACUGGAUAAUCGCGUGGAUAUGGCACGCAAGUUUCUACCGGGCACCGUAAAUGUCCGACUGGAGCCGUUCGGGCGGCUAUAAACAGACCUCAGGCCCGAAGCGUGGCGGCACCUGCCGCCGGUGGUAAAAAAGAUCGGAAGAGCACACGUCU [U7G G9A U10C C12G C13G] | 1.19
4 | GGGUCGGUACAAGAUAAUCGCGUGGAUAUGGCACGCAAGUUUCUACCGGGCACCGUAAAUGUCCGACUGGAGCCGUUCGGGCGGCUAUAAACAGACCUCAGGCCCGAAGCGUGGCGGCACCUGCCGCCGGUGGUAAAAAAGAUCGGAAGAGCACACGUCU [U7G G9A U10C U11A C12A C13G] | 1.09
5 | GGGUCGGUACAAUAUAAUCGCGUGGAUAUGGCACGCAAGUUUCUACCGGGCACCGUAAAUGUCCGACUGGAGCCGUUCGGGCGGCUAUAAACAGACCUCAGGCCCGAAGCGUGGCGGCACCUGCCGCCGGUGGUAAAAAAGAUCGGAAGAGCACACGUCU [U7G G9A U10C U11A C12A C13U] | 1.09
6 | GGGUCGGUACAAAAUAAUCGCGUGGAUAUGGCACGCAAGUUUCUACCGGGCACCGUAAAUGUCCGACUGGAGCCGUUCGGGCGGCUAUAAACAGACCUCAGGCCCGAAGCGUGGCGGCACCUGCCGCCGGUGGUAAAAAAGAUCGGAAGAGCACACGUCU [U7G G9A U10C U11A C12A C13A] | 1.11
7 | GGGUCGGUACAGCAUAAUCGCGUGGAUAUGGCACGCAAGUUUCUACCGGGCACCGUAAAUGUCCGACUGGAGCCGUUCGGGCGGCUAUAAACAGACCUCAGGCCCGAAGCGUGGCGGCACCUGCCGCCGGUGGUAAAAAAGAUCGGAAGAGCACACGUCU [U7G G9A U10C U11A C12G] | 1.15
8 | GGGUCGGUACAUCAUAAUCGCGUGGAUAUGGCACGCAAGUUUCUACCGGGCACCGUAAAUGUCCGACUGGAGCCGUUCGGGCGGCUAUAAACAGACCUCAGGCCCGAAGCGUGGCGGCACCUGCCGCCGGUGGUAAAAAAGAUCGGAAGAGCACACGUCU [U7G G9A U10C U11A C12U] | 1.18
9 | GGGUCGGUACAACAUAAUCGCGUGGAUAUGGCACGCAAGUUUCUACCGGGCACCGUAAAUGUCCGACUGGAGCCGUUCGGGCGGCUAUAAACAGACCUCAGGCCCGAAGCGUGGCGGCACCUGCCGCCGGUGGUAAAAAAGAUCGGAAGAGCACACGUCU [U7G G9A U10C U11A C12A] | 1.1
10 | GGGUCGGUACUCGAUAAUCGCGUGGAUAUGGCACGCAAGUUUCUACCGGGCACCGUAAAUGUCCGACUGGAGCCGUUCGGGCGGCUAUAAACAGACCUCAGGCCCGAAGCGUGGCGGCACCUGCCGCCGGUGGUAAAAAAGAUCGGAAGAGCACACGUCU [U7G G9A U10C C13G] | 1.08
11 | GGGUCGGUACUCUAUAAUCGCGUGGAUAUGGCACGCAAGUUUCUACCGGGCACCGUAAAUGUCCGACUGGAGCCGUUCGGGCGGCUAUAAACAGACCUCAGGCCCGAAGCGUGGCGGCACCUGCCGCCGGUGGUAAAAAAGAUCGGAAGAGCACACGUCU [U7G G9A U10C C13U] | 1.44
12 | GGGUCGGUACUCAAUAAUCGCGUGGAUAUGGCACGCAAGUUUCUACCGGGCACCGUAAAUGUCCGACUGGAGCCGUUCGGGCGGCUAUAAACAGACCUCAGGCCCGAAGCGUGGCGGCACCUGCCGCCGGUGGUAAAAAAGAUCGGAAGAGCACACGUCU [U7G G9A U10C C13A] | 1.11
13 | GGGUCGGUACUUCAUAAUCGCGUGGAUAUGGCACGCAAGUUUCUACCGGGCACCGUAAAUGUCCGACUGGAGCCGUUCGGGCGGCUAUAAACAGACCUCAGGCCCGAAGCGUGGCGGCACCUGCCGCCGGUGGUAAAAAAGAUCGGAAGAGCACACGUCU [U7G G9A U10C C12U] | 1.59
14 | GGGUCGGUACUACAUAAUCGCGUGGAUAUGGCACGCAAGUUUCUACCGGGCACCGUAAAUGUCCGACUGGAGCCGUUCGGGCGGCUAUAAACAGACCUCAGGCCCGAAGCGUGGCGGCACCUGCCGCCGGUGGUAAAAAAGAUCGGAAGAGCACACGUCU [U7G G9A U10C C12A] | 1.28
15 | GGGUCGGUACUGCAUAAUCGCGUGGAUAUGGCACGCAAGUUUCUACCGGGCACCGUAAAUGUCCGACUGGAGCCGUUCGGGCGGCUAUAAACAGACCUCAGGCCCGAAGCGUGGCGGCACCUGCCGCCGGUGGUAAAAAAGAUCGGAAGAGCACACGUCU [U7G G9A U10C C12G] | 1.38
16 | GGGUCGGUACACUAUAAUCGCGUGGAUAUGGCACGCAAGUUUCUACCGGGCACCGUAAAUGUCCGACUGGAGCCGUUCGGGCGGCUAUAAACAGACCUCAGGCCCGAAGCGUGGCGGCACCUGCCGCCGGUGGUAAAAAAGAUCGGAAGAGCACACGUCU [U7G G9A U10C U11A C13U] | 1.19
17 | GGGUCGGUACACAAUAAUCGCGUGGAUAUGGCACGCAAGUUUCUACCGGGCACCGUAAAUGUCCGACUGGAGCCGUUCGGGCGGCUAUAAACAGACCUCAGGCCCGAAGCGUGGCGGCACCUGCCGCCGGUGGUAAAAAAGAUCGGAAGAGCACACGUCU [U7G G9A U10C U11A C13A] | 1.17
18 | GGGUCGGUACACGAUAAUCGCGUGGAUAUGGCACGCAAGUUUCUACCGGGCACCGUAAAUGUCCGACUGGAGCCGUUCGGGCGGCUAUAAACAGACCUCAGGCCCGAAGCGUGGCGGCACCUGCCGCCGGUGGUAAAAAAGAUCGGAAGAGCACACGUCU [U7G G9A U10C U11A C13G] | 1.09

Row | Variant | aptazyme ON/OFF ratio
19 | GGGUCGGUACAUUAUAAUCGCGUGGAUAUGGCACGCAAGUUUCUACCGGGCACCGUAAAUGUCCGACUGGAGCCGUUCGGGCGGCUAUAAACAGACCUCAGGCCCGAAGCGUGGCGGCACCUGCCGCCGGUGGUAAAAAAGAUCGGAAGAGCACACGUCU [U7G G9A U10C U11A C12U C13U] | 1.04
20 | GGGUCGGUACAUAAUAAUCGCGUGGAUAUGGCACGCAAGUUUCUACCGGGCACCGUAAAUGUCCGACUGGAGCCGUUCGGGCGGCUAUAAACAGACCUCAGGCCCGAAGCGUGGCGGCACCUGCCGCCGGUGGUAAAAAAGAUCGGAAGAGCACACGUCU [U7G G9A U10C U11A C12U C13A] | 1.11
21 | GGGUCGGUACAUGAUAAUCGCGUGGAUAUGGCACGCAAGUUUCUACCGGGCACCGUAAAUGUCCGACUGGAGCCGUUCGGGCGGCUAUAAACAGACCUCAGGCCCGAAGCGUGGCGGCACCUGCCGCCGGUGGUAAAAAAGAUCGGAAGAGCACACGUCU [U7G G9A U10C U11A C12U C13G] | 1.05
22 | GGGUCGGUACCCCAUAAUCGCGUGGAUAUGGCACGCAAGUUUCUACCGGGCACCGUAAAUGUCCGACUGGAGCCGUUCGGGCGGCUAUAAACAGACCUCAGGCCCGAAGCGUGGCGGCACCUGCCGCCGGUGGUAAAAAAGAUCGGAAGAGCACACGUCU [U7G G9A U10C U11C] | 1.04
23 | GGGUCGGUACACCAUAAUCGCGUGGAUAUGGCACGCAAGUUUCUACCGGGCACCGUAAAUGUCCGACUGGAGCCGUUCGGGCGGCUAUAAACAGACCUCAGGCCCGAAGCGUGGCGGCACCUGCCGCCGGUGGUAAAAAAGAUCGGAAGAGCACACGUCU [U7G G9A U10C U11A] | 2.37
24 | GGGUCGGUACCACAUAAUCGCGUGGAUAUGGCACGCAAGUUUCUACCGGGCACCGUAAAUGUCCGACUGGAGCCGUUCGGGCGGCUAUAAACAGACCUCAGGCCCGAAGCGUGGCGGCACCUGCCGCCGGUGGUAAAAAAGAUCGGAAGAGCACACGUCU [U7G G9A U10C U11C C12A] | 1.26
25 | GGGUCGGUACUUGAUAAUCGCGUGGAUAUGGCACGCAAGUUUCUACCGGGCACCGUAAAUGUCCGACUGGAGCCGUUCGGGCGGCUAUAAACAGACCUCAGGCCCGAAGCGUGGCGGCACCUGCCGCCGGUGGUAAAAAAGAUCGGAAGAGCACACGUCU [U7G G9A U10C C12U C13G] | 1.15
26 | GGGUCGGUACUUAAUAAUCGCGUGGAUAUGGCACGCAAGUUUCUACCGGGCACCGUAAAUGUCCGACUGGAGCCGUUCGGGCGGCUAUAAACAGACCUCAGGCCCGAAGCGUGGCGGCACCUGCCGCCGGUGGUAAAAAAGAUCGGAAGAGCACACGUCU [U7G G9A U10C C12U C13A] | 1.18
27 | GGGUCGGUACUUUAUAAUCGCGUGGAUAUGGCACGCAAGUUUCUACCGGGCACCGUAAAUGUCCGACUGGAGCCGUUCGGGCGGCUAUAAACAGACCUCAGGCCCGAAGCGUGGCGGCACCUGCCGCCGGUGGUAAAAAAGAUCGGAAGAGCACACGUCU [U7G G9A U10C C12U C13U] | 1.19
28 | GGGUCGGUACUAUAUAAUCGCGUGGAUAUGGCACGCAAGUUUCUACCGGGCACCGUAAAUGUCCGACUGGAGCCGUUCGGGCGGCUAUAAACAGACCUCAGGCCCGAAGCGUGGCGGCACCUGCCGCCGGUGGUAAAAAAGAUCGGAAGAGCACACGUCU [U7G G9A U10C C12A C13U] | 1.15
29 | GGGUCGGUACUAAAUAAUCGCGUGGAUAUGGCACGCAAGUUUCUACCGGGCACCGUAAAUGUCCGACUGGAGCCGUUCGGGCGGCUAUAAACAGACCUCAGGCCCGAAGCGUGGCGGCACCUGCCGCCGGUGGUAAAAAAGAUCGGAAGAGCACACGUCU [U7G G9A U10C C12A C13A] | 1.14
30 | GGGUCGGUACUAGAUAAUCGCGUGGAUAUGGCACGCAAGUUUCUACCGGGCACCGUAAAUGUCCGACUGGAGCCGUUCGGGCGGCUAUAAACAGACCUCAGGCCCGAAGCGUGGCGGCACCUGCCGCCGGUGGUAAAAAAGAUCGGAAGAGCACACGUCU [U7G G9A U10C C12A C13G] | 1.13
31 | GGGUCGGUACAGAAUAAUCGCGUGGAUAUGGCACGCAAGUUUCUACCGGGCACCGUAAAUGUCCGACUGGAGCCGUUCGGGCGGCUAUAAACAGACCUCAGGCCCGAAGCGUGGCGGCACCUGCCGCCGGUGGUAAAAAAGAUCGGAAGAGCACACGUCU [U7G G9A U10C U11A C12G C13A] | 1.11
32 | GGGUCGGUACAGUAUAAUCGCGUGGAUAUGGCACGCAAGUUUCUACCGGGCACCGUAAAUGUCCGACUGGAGCCGUUCGGGCGGCUAUAAACAGACCUCAGGCCCGAAGCGUGGCGGCACCUGCCGCCGGUGGUAAAAAAGAUCGGAAGAGCACACGUCU [U7G G9A U10C U11A C12G C13U] | 1.12
33 | GGGUCGGUACAGGAUAAUCGCGUGGAUAUGGCACGCAAGUUUCUACCGGGCACCGUAAAUGUCCGACUGGAGCCGUUCGGGCGGCUAUAAACAGACCUCAGGCCCGAAGCGUGGCGGCACCUGCCGCCGGUGGUAAAAAAGAUCGGAAGAGCACACGUCU [U7G G9A U10C U11A C12G C13G] | 1.07
34 | GGGUCGGUACCAUAUAAUCGCGUGGAUAUGGCACGCAAGUUUCUACCGGGCACCGUAAAUGUCCGACUGGAGCCGUUCGGGCGGCUAUAAACAGACCUCAGGCCCGAAGCGUGGCGGCACCUGCCGCCGGUGGUAAAAAAGAUCGGAAGAGCACACGUCU [U7G G9A U10C U11C C12A C13U] | 1.12
35 | GGGUCGGUACCAAAUAAUCGCGUGGAUAUGGCACGCAAGUUUCUACCGGGCACCGUAAAUGUCCGACUGGAGCCGUUCGGGCGGCUAUAAACAGACCUCAGGCCCGAAGCGUGGCGGCACCUGCCGCCGGUGGUAAAAAAGAUCGGAAGAGCACACGUCU [U7G G9A U10C U11C C12A C13A] | 1.11
36 | GGGUCGGUACCAGAUAAUCGCGUGGAUAUGGCACGCAAGUUUCUACCGGGCACCGUAAAUGUCCGACUGGAGCCGUUCGGGCGGCUAUAAACAGACCUCAGGCCCGAAGCGUGGCGGCACCUGCCGCCGGUGGUAAAAAAGAUCGGAAGAGCACACGUCU [U7G G9A U10C U11C C12A C13G] | 1.19
